The source of these data is patent US20240166745A1 (Eli Lilly, published 2024).

The target in assay [1] is T1, Human LAG-3 ECD-His (human, UniProt P18627 23-449).
T1 construct: Soluble analyte in SPR; the entry includes linker and His tag; also called human LAG-3-His
T1 sequence: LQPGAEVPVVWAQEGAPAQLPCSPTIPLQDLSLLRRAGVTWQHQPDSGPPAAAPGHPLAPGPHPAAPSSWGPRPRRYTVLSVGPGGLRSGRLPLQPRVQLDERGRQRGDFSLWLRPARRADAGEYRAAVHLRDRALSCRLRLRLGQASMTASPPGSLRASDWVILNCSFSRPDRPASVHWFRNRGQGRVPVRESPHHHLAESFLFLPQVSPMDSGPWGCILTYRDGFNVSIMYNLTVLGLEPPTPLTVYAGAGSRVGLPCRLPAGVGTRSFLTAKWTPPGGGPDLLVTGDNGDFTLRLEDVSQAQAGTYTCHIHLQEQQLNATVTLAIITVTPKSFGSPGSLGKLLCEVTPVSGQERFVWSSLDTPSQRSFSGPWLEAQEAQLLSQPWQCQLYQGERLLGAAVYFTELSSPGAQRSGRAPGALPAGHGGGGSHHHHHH
Nature of the assay: SPR (Biacore T200), antibody captured on PrismA chip, ECD as analyte, 25° C. The method, then:
(§1) A Biacore® T200 (Cytiva, Marlborough, MA) was used to measure the binding kinetics and affinities of the LAG-3 antibody to the LAG-3 soluble extracellular domain (ECD) and the bispecific antibody to soluble LAG-3-ECD and PD-1-ECD (human: Sino Biologicals, Cat #10377-H08H; cynomolgus: Sino Biologicals, Cat #90311-C08H) by surface plasmon resonance. Samples were diluted in HBS-EP+ (10 mM Hepes, 150 mM NaCl, 3 mM EDTA, 0.05% Tween-20, pH 7.6) (Teknova Cat #H8022) with 5 g/L of BSA (Jackson ImmunoResearch Cat #001-000-161) running buffer. PrismA Series S Sensor chip (Cat #29650263) is purchased from Cytiva.
(§2) Binding was evaluated using multi-cycle kinetics by an antibody capture method. Each cycle was performed at either 37° C. or 25° C. at a flow rate of 10 μL/min for antibody capture to the PrismA chip and 100 μL/min for analyte association (with 120 sec contact time) and dissociation (900 sec). Each cycle consisted of the following steps: injection of bispecific antibody at 1 μg/mL in HBS-EP+ targeting Rmax values of 125 RU (LAG-3 arm), 294 RU (PD-1 arm) and 63 RU (LAG-3 antibody) on flow cell, injection of analyte in HBS-EP+(concentration range of 62.5 nM to 0.25 nM by two-fold serial dilution for both human PD-1-ECD-His (SEQ ID NO: 40) and human LAG-3-His (SEQ ID NO: 42) followed by 900-second dissociation phase, and regeneration using 10 μL of 10 mM glycine hydrochloride, pH 1.5 over a 60-second contact time utilizing a 10 μL/min flow rate. All analyte concentrations were determined utilizing monomeric molecular weight (MW) values. Association rates (kₒₙ) and dissociation rates (koff) for LAG-3-ECD and PD-1-ECD were evaluated using double referencing by flow-cell one reference subtraction in addition to 0 nM blank subtraction and fit to “1:1 (Langmuir) binding” model in the BIAevaluation software version 4.1. The dissociation constant (KD) was calculated from the binding kinetics according to the relationship KD=Koff/Kₒₙ. Stoichiometry=[RUₘₐₓ/RUcaptured]/[MWanalyte/MWantibody] where MWAntibodyA is 150 kDa. Values are reported as mean±standard deviation.
In general terms: In SPR one partner is held on a chip, and binding of the other changes the refractive index at the surface.

For assay [2], the target named is T2, Cynomolgus LAG-3-ECD (cynomolgus).
T2 construct: as printed it starts with the N-terminal leader (MWEAQ...) and ends with a His tag; also called Cynomolgus LAG-3 ECD-His
T2 chain: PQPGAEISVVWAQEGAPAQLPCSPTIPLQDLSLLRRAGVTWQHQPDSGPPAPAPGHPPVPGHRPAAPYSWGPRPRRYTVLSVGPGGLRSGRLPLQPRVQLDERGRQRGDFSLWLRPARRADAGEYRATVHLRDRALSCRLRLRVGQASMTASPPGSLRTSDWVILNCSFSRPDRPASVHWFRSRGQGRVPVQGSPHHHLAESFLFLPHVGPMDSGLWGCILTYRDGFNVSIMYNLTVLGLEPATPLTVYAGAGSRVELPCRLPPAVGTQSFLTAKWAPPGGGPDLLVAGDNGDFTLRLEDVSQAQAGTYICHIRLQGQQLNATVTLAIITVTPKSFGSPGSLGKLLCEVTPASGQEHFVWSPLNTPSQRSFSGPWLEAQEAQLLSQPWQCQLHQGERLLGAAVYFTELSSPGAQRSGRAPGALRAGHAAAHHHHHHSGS
The assay is described as above. The procedure:
as §1, §2

Assay [3] addresses T3, Human PD-1 ECD-His (human, UniProt Q15116 25-167).
T3 construct: Soluble analyte in SPR; the entry includes the His tag
The description is as above. The method, then:
as §1, §2

In assay [4] the target is T4, cell membrane-expressed human LAG-3/PD-1 (human, UniProt P18627 23-525; Q15116 25-288).
T4 construct: also called Human CD4
T4 sequence (Q15116 25-288 limits assumed, one chain of several): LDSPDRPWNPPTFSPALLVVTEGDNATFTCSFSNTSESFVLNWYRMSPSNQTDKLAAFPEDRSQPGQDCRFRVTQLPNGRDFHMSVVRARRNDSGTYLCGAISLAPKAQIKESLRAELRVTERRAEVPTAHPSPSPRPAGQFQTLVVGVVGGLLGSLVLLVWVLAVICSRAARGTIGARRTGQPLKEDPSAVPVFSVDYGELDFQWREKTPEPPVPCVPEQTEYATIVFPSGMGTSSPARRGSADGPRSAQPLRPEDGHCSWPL
Nature of the assay: flow cytometry, labeled antibody on anti-CD3 activated human PBMC, CD4 T cells, percent of cells bound (mean +/- SEM, n=3). The procedure:
Cells were incubated with 10-12 point, 3-fold serial dilutions of the respective labeled antibody (Invitrogen #S20026, Invitrogen #C20029), starting at 30 ug/mL, in PBS+2% FCS for 30 minutes at 4° C. and containing the following: CD4 eBioscience #12-0047-42 or Biolegend #344634; CD8 eBioscience #25-0088-42; CD3 eBioscience 56-0038-82 for human cells and BD #557917 for cyno cells; CD33 eBioscience 45-0338-42 for human cells; Live/Dead eBioscience #65-0865-18. After washing thoroughly, cells were processed on a BD Fortessa or Fortessa X20 cytometer, and data were analyzed with Flowjo software (BD Biosciences). Percent of cells bound by the respective antibody is quantified and graphed with Prism (Graphpad, San Diego, CA).
(In general: Flow cytometry measures light scatter and fluorescence of single cells or particles in a stream.)

The target of assay [5] is T1, Human LAG-3 ECD-His. The assay can be described thus: SPR (Biacore T200), antibody captured on PrismA chip, ECD as analyte, 37° C., steady-state equilibrium model (SS); 37° C., steady-state equilibrium model.
Assay [6] concerns the target T1, Human LAG-3 ECD-His. The assay can be described thus: SPR (Biacore T200), antibody captured on PrismA chip, ECD as analyte, 37° C. The procedure:
as §1, §2

Residue numbers refer to the chain shown, from its start.

One may read the Kd as the concentration at which binding is half-saturated. The low end stands for tighter binding, the high end for weaker binding. A word on the koff: it is a measure of how fast the partners let go of each other. As usually defined, the kon is the rate constant with which the complex forms. By EC50 is commonly meant the concentration that produces a half-maximal response.

T3 sequence (Q15116 other isoform, or with tags, fused parts or gaps): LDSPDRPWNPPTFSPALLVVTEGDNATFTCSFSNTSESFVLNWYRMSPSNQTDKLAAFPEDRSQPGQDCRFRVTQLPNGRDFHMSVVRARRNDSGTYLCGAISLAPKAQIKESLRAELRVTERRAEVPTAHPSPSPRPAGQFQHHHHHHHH

B1: Antibody A (bispecific antibody, human IgG1, kappa, lambda)
heavy 1: not shown
light 1: DIVMTQTPLSLPVTPGEPASISCRSSQSLLDSAEGSTYLDWFLRKPGDSPQLLIYTLSYRASGVPDRFSGSGSGTDFTLKISRVEAEDVGVYYCMQRVEFPYTFGQGTKVEIKRTVAAPSVFIFPPSKEQLKSGTASVVCLLNNFYPREAKVQWKVDNALQSGNSQESVTEQDSKDSTYSLSSTLTLSKADYEKHKVYACEVTHQGLSSPVTKSFNRGEC
heavy 2: QVQLVQSGAEVKKPGASVKVSCKVSGYSLSKYDMSWVRKAPGKGLEWMGIIYTSGYTDYAQEFQGRVTMTEDTSTDTAYMELSSLRSEDTAVYYCATGNPYYTNGFNSWGQGTLVTVSSASTKGPSVFPLAPSSKSTSGGTAALGCLVKDYFPEPVTVSWNSGALTSGVATGPAVLQSSGLYSLSSVVTVPSSSLGTQTYICNVNHKPSNTKVDKRVEPKSCDKTHTCPPCPAPELLGGPSVFLFPPKPKDTLMISRTPEVTCVVVDVSHEDPEVKFNWYVDGVEVHNAKTKPREEQYNSTYRVVSVLTVLHQDWLNGKEYKCKVSNKALPAPIEKTISKAKGQPREPQVYTLPPSREEMTDNQVSLTCLVKGFYPSDIAVEWESNGQPENNYKTTPPVLMSDGSFFLASKLTVDKSRWQQGNVFSCSVMHEALHNHYTQKSLSLSPGK
light 2: RIQMTQSPSSLSASVGDRVTITCQASQSPNNLLAWYQDKPGKAPKLLIYGASDLPSGVPSRFSGSGSGTDFTLTISSLQPEDFATYYCQNNYYVGPVSYAFGGGTKVEIKGQPKAAPSVTLFPPSSEELQANKATLVCYISDFYPGAVTVAWKADSSPVKAGVETTTPSKQSNNKYAAWSYLSLTPEQWKSHRSYSCQVTHEGSTVEKTVAPTEC
notes: IgG-like bispecific with one LAG-3 arm and one PD-1 arm; also called human LAG-3/human PD-1 dual agonist bispecific antibody
For the molecule B1, the Kd was determined as 550 pM in assay [1], 31 pM in assay [2], 760 pM in assay [3] and 5700 pM in assay [5]. In addition, the koff was found to be 0.019 s⁻¹ in assay [1], 0.0017 s⁻¹ in assay [2] and 0.00057 s⁻¹ in assay [3]. Moreover, the kon was 3.4e+07 M⁻¹ s⁻¹ in assay [1] and 5.4e+07 M⁻¹ s⁻¹ in assay [2]. This molecule showed an EC50 in assay [4] of 0.0357 µg/mL.

B2: Antibody B (bispecific antibody, human IgG1, kappa, lambda)
heavy 1: not shown
light 1: B1 light 1
heavy 2: B1 heavy 2 with K324A
light 2: B1 light 2
notes: also called human LAG-3/human PD-1 dual agonist bispecific antibody
In the case of B2, the Kd in assay [6] was 6100 pM; in assay [1], 530 pM; in assay [2], 31 pM; in assay [3], 760 pM. The koff in assay [6] turned out to be 0.34 s⁻¹; in assay [1] it was 0.023 s⁻¹; in assay [2] it was 0.0017 s⁻¹; in assay [3], 0.00058 s⁻¹. For the same molecule, the kon in assay [6] came out at 5.5e+07 M⁻¹ s⁻¹; in assay [1], 4.3e+07 M⁻¹ s⁻¹; in assay [2], 5.5e+07 M⁻¹ s⁻¹; in assay [3], 770000 M⁻¹ s⁻¹. Besides, a half-maximal response in assay [4] (EC50) required 0.0423 µg/mL.
